Test results: patent US20070009547A1 (INSTITUT PASTEUR, published 2007)

Biological target: T1, CFP-10 carrying an N-terminal HIS tag, produced by BCG::2F9-HIS-EsxB (Mycobacterium tuberculosis, UniProt P9WNK5 2-100)
T1 sequence: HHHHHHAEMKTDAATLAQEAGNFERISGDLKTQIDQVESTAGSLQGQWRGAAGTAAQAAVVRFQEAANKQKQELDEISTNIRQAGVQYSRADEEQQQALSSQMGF
Test: Ni-NTA co-purification, Coomassie gel and western blot

B1: 6 kDa early secreted antigenic target (ESAT-6), native, encoded by esxA (other)
chain: TEQQWNFAGIEAAASAIQGNVTSIHSLLDEGKQSLTKLAAAWGGSGSEAYQGVQQKWDATATELNNALQNLARTISEAGQAMASTEGNVTGMFA
B1: binds.
